The target in the test is 3XFLAG-ZAPL N658A (human) (UniProt Q7Z2W4). The test is described as follows: co-IP; 3XFLAG-ZAPL and myc-TRIM25 co-transfected into ZAP KO HEK293T cells; lysed in FLAG buffer (100mM Tris HCl pH8.0, 150mM NaCl, 5mM EDTA, 5% glycerol, 0.1% NP-40, 1mM DTT); FLAG beads with lysates at 4°C for 45 min, three washes, immunoblot; densitometry of myc-TRIM25 normalized to FLAG-ZAP pulldown and to WT.

The values that follow come from PMC11361444.

UniProt Q7Z2W4, sequence (Q7Z2W4 whole entry N658A): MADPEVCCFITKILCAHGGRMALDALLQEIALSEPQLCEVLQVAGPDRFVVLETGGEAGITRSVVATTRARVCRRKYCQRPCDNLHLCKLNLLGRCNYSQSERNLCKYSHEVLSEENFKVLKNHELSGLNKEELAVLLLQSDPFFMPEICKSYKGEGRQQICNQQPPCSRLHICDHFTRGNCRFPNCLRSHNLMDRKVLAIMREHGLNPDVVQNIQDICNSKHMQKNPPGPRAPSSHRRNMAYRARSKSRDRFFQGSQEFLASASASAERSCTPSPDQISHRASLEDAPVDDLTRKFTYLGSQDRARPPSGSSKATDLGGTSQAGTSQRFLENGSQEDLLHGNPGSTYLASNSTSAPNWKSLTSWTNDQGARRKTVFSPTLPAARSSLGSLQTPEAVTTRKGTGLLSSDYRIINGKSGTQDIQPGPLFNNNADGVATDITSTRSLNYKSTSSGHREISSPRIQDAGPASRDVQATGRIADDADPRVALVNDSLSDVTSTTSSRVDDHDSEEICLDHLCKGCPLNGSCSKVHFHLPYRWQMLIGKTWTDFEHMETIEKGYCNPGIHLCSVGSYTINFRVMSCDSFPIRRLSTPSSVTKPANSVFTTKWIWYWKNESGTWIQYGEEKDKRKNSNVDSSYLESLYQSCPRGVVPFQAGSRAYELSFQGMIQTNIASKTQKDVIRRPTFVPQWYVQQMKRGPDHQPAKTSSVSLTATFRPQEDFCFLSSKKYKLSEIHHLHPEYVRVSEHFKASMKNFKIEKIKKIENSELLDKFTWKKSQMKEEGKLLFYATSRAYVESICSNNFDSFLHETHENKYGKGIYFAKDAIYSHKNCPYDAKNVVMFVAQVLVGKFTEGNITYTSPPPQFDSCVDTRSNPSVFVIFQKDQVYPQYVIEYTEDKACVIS

Substance “myc-TRIM25 (tripartite motif containing 25) (from UniProt Q14258 1-630) (natural protein)” showed a myc-TRIM25 immunoprecipitated by FLAG-ZAP, relative to ZAPL WT (x (fold of ZAPL WT)) of 1.09.
